Where a chain is given by its changes, count along the chain named. Where two headings read alike, the source gives them in different places. Blank lines part the entries; values can stand above or below the binder they belong to.
Experiments:
human properdin [1] = target: T1, human properdin (human, UniProt P27918 28-469); experiment: ELISA
human properdin [2] = target: T1, human properdin; experiment: ELISA; remark: listed apart in the source
human properdin [3] = target: T1, human properdin; experiment: ELISA, inhibition of properdin binding to C3b
human properdin [4] = target: T1, human properdin; experiment: ELISA; remark: listed apart in the source

T1 sequence (P27918 28-469): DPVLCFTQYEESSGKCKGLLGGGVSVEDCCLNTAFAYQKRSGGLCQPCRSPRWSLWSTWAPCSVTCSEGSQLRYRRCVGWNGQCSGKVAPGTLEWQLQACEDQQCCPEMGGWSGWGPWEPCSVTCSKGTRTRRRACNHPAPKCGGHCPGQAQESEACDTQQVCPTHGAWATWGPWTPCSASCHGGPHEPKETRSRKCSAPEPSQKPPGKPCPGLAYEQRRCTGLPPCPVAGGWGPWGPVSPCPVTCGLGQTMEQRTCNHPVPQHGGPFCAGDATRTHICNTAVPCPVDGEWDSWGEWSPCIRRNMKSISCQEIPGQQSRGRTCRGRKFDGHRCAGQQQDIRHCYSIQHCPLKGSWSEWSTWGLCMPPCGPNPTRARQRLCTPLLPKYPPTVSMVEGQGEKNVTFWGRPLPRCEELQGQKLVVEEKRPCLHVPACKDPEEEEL

B3: NM9401-F(ab′)2 (other)
VH: QVQLQQSAPELARPGASVKMSCTASGYIFTNYPIHWVKQRPGQGLEWIGFIDPGGGYDEPDERFRDRATLTADKSSSTAYMQLSSLTSEDSAIYYCARRGGGYYLDYWGQGTTLTVSSAKTT
VL: DIQMTQTTSSLSASLGDRVTISCRASQDISFFLNWYQQKPDGTVKLLIYYTSRYHSGVPSRFSGSGSGTDFSLTINNLEQEDFATYFCQHGNTLPWTFGGGTKLEIKRADAAPTVSIFPPSSEQLTSGGASVVCFLNN
Kd (human properdin [1]): 0.118 nM

B4: BAP010hum10 (humanized anti-properdin monoclonal antibody) (antibody, V domains shown)
VH: QVQLQESGPGLVKPSQTLSLTCTVSGYIFTNYPIHWVRQATGQGLEWMGFIDPGGGYDEPDERFRDRVTITADKSTSTAYMELSSLRSEDTAVYYCARRGGGYYLDYWGQG
VL: DIQMTQSPSSLSASVGDRVTITCRASQDISFFLNWYQQKPGKAPKLLIYYTSRYHSGIPPRFSGSGYGTEFTFTISSLEAEDAATYYCQHGNTLPWTFGQG
Kd (human properdin [4]): 0.0236 nM

B5: BAP010hum03 (humanized anti-properdin monoclonal antibody) (antibody, V domains shown)
VH: EVQLVQSGAEVKKPGESLRISCKGSGYIFTNYPIHWIRQSPSRGLEWLGFIDPGGGYDEPDERFRDRVTISADKSISTAYLQWSSLKASDTAMYYCARRGGGYYLDYWGQG
VL: B4 VL with I58V, P60S, Y67S, F73L, E79Q, A80S, A83F, T85V
Kd (human properdin [4]): 0.0207 nM

B6: BAP010hum02 (humanized anti-properdin monoclonal antibody) (antibody, V domains shown)
VH: QVQLQESGPGLVKPSQTLSLTCTVSGYIFTNYPIHWVRQAPGKGLEWVSFIDPGGGYDEPDERFRDRVTISVDTSKNQFSLKLSSVTAADTAVYYCARRGGGYYLDYWGQG
VL: EIVLTQSPATLSLSPGERATLSCRASQDISFFLNWFQQRPGQSPRRLIYYTSRYHSGIPPRFSGSGYGTDFTLTINNIESEDAAYYFCQHGNTLPWTFGQG
Kd (human properdin [4]): 0.0138 nM

Other lines, results leading:

Kd (human properdin [1]): 0.101 nM | Kd (human properdin [2]): 0.256 nM | IC50 (human properdin [3]): 10.7 nM
B1: NM9401-IgG (murine anti-properdin monoclonal antibody, IgG1) (antibody, V domains shown)
VH: QVQLQQSAPELARPGASVKMSCTASGYIFTNYPIHWVKQRPGQGLEWIGFIDPGGGYDEPDERFRDRATLTADKSSSTAYMQLSSLTSEDSAIYYCARRGGGYYLDYWGQGTTLTVSS
VL: DIQMTQTTSSLSASLGDRVTISCRASQDISFFLNWYQQKPDGTVKLLIYYTSRYHSGVPSRFSGSGSGTDFSLTINNLEQEDFATYFCQHGNTLPWTFGGGTKLEIKR

Kd (human properdin [1]): 0.103 nM
B2: NM9401-Fab (Fab, V domains shown)
VH: B1 VH
VL: B1 VL
